Experimental data taken from patent publication US20160289298A1.

Key:
[1] = target: TGFβ1 (UniProt P01137); assay: SPR (Biacore), receptor-Fc captured by anti-Fc antibody, ligand injected
[2] = target: TGFβ2 (UniProt P61812); assay: as above
TGFβ2, sequence (P61812 303-414 limits assumed): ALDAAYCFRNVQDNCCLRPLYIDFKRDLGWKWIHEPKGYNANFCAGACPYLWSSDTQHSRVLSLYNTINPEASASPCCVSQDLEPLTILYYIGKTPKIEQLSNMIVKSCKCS

TGFβ1, sequence (P01137 279-390 limits assumed): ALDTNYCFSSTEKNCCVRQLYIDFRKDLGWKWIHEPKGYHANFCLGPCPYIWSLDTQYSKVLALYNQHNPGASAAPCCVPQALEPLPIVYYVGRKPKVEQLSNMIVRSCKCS

## TGFβRII-Fc homodimeric complex (from UniProt P37173 23-159) (Fc fusion)
[1]
  Kd: 0.025 nM
[2]
  Kd: > 44 nM
